Source: US20090035321A1, “Intercellular adhesion molecules and their binding ligands” (Boehringer Ingelheim Pharmaceuticals, Inc., published 2009)

Assays:
Assay in all cases: 35S-HRV14 on COS cells
[1] = target: ICAM-1 E59/K (human, UniProt P05362)
Method: (§1) COS cells were seeded into 10 cm tissue culture plates such that they would be 50% confluent by 16-24 hrs. COS cells were then washed once with TBS and incubated for 4 hrs with 4 ml RPMI containing 10% Nu sera (Collaborative) 5 pg/ml chloroquine, 3 μg of mutant plasmid and 200 μg/ml DEAE-dextran sulfate. Cells were then washed with 10% DMSO/PBS followed by PBS and cultured 16 hrs in culture media. Culture media was replaced with fresh media and at 48 hrs post transfection (OS cells were suspended by trypsin/EDTA (Gibco) treatment and divided into 2, 10 cm plates as well as 24 well tissue culture plates for HRV binding. At 72 hrs cells were harvested from 10 cm plates with 5 mM EDTA/HBSS and processed for adhesion to LFA-1 coated plastic and immunofluorescence.
(§2) Binding occurred in 1 hr at 35° C. in a 5% CO₂ atmosphere with horizontal rotation (100 rpm). Unbound [³⁵S] HRV14 was aspirated, COS cells were gently washed with 150 ml of HRV buffer and then solubilized with 1% SDS in PBS for scintillation counting.
(§3) In Table 25, the notation for the mutations uses the one-letter code for the wild-type sequence followed by a slash and the one-letter code for the corresponding mutant sequence. The position of the first amino acid within the sequence is indicated. Wild type residues precede the slash followed by the residues they were substituted for in the mutant. COS cells expressing ICAM-1 mutants were tested for adherence to LFA-1 coated plastic and for binding 35S met-labeled HRV14. […] Binding is presented as mean and standard error (SE) for multiple experiments (n). […] The specific linear fluorescence intensity (SLFI) of CL203 for each mutant is normalized to that of wild type CL203 SLFI (% WT) as discussed above. The SLFI of RR1/1, R6.5 and LB-2 SLFI is normalized to the CL203 SLFI of the mutant (% CL203) as described above.

[2] = target: ICAM-1 V136GE/GVK (human, UniProt P05362)
Method: as §1, §2, §3

[3] = target: ICAM-1 K8/E (human, UniProt P05362)
Method: as §1, §2, §3

[4] = target: ICAM-1 R13/Q (human, UniProt P05362)
Method: as §1, §2, §3

[5] = target: ICAM-1 N175/A (human, UniProt P05362)
Method: as §1, §2, §3

[6] = target: ICAM-1 S3/T (human, UniProt P05362)
Method: as §1, §2, §3

[7] = target: ICAM-1 Q1/K (human, UniProt P05362)
Method: as §1, §2, §3

[8] = target: ICAM-1 K39KE/ERQ (human, UniProt P05362)
Method: as §1, §2, §3

[9] = target: ICAM-1 Q27/L (human, UniProt P05362)
Method: as §1, §2, §3

[10] = target: ICAM-1 R13/E (human, UniProt P05362)
Method: as §1, §2, §3

[11] = target: ICAM-1 D60/N (human, UniProt P05362)
Method: as §1, §2, §3

[12] = target: ICAM-1 D213GL/HGV (human, UniProt P05362)
Method: as §1, §2, §3

[13] = target: ICAM-1 Y52/FA (human, UniProt P05362)
Method: as §1, §2, §3

[14] = target: ICAM-1 G101K/AN (human, UniProt P05362)
Method: as §1, §2, §3

[15] = target: ICAM-1 Y66/T (human, UniProt P05362)
Method: as §1, §2, §3

[16] = target: ICAM-1 R88V/EA (human, UniProt P05362)
Method: as §1, §2, §3

[17] = target: ICAM-1 S24/A (human, UniProt P05362)
Method: as §1, §2, §3

[18] = target: ICAM-1 S3VS/AGL (human, UniProt P05362)
Method: as §1, §2, §3

[19] = target: ICAM-1 N156/E (human, UniProt P05362)
Method: as §1, §2, §3

[20] = target: ICAM-1 E90/Q (human, UniProt P05362)
Method: as §1, §2, §3

[21] = target: ICAM-1 E254DE/KEK (human, UniProt P05362)
Method: as §1, §2, §3

[22] = target: ICAM-1 D71/E (human, UniProt P05362)
Method: as §1, §2, §3

[23] = target: ICAM-1 G46NN/ASI (human, UniProt P05362)
Method: as §1, §2, §3

[24] = target: ICAM-1 G15/SA (human, UniProt P05362)
Method: as §1, §2, §3

[25] = target: ICAM-1 Q58/H (human, UniProt P05362)
Method: as §1, §2, §3

[26] = target: ICAM-1 K40/A (human, UniProt P05362)
Method: as §1, §2, §3

[27] = target: ICAM-1 Q1/E (human, UniProt P05362)
Method: as §1, §2, §3

[28] = target: ICAM-1 K128/R (human, UniProt P05362)
Method: as §1, §2, §3

[29] = target: ICAM-1 N103/K (human, UniProt P05362)
Method: as §1, §2, §3

B1: human rhinovirus 14 (HRV14) (other)
chain: GAQVSTQKSGSHENQNILTNGSNQTFTVINYYKDAASTSSAGQSLSMDPSKFTEPVKDLMLKGAPALNSPNVEACGYSDRVQQITLGNSTITTQEAANAVVCYAEWPEYLPDVDASDVNKTSKPDTSVCRFYTLDSKTWTTGSKGWCWKLPDALKDMGVFGQNMFFHSLGRSGYTVHVQCNATKFHSGCLLVVVIPEHQLASHEGGNVSVKYTFTHPGERGIDLSSANEVGGPVKDVIYNMNGTLLGNLLIFPHQFINLRTNNTATIVIPYINSVPIDSMTRHNNVSLMVIPIAPLTVPTGATPSLPITVTIAPMCTEFSGIRSKSIVPQGLPTTTLPGSGQFLTTDDRQSPSALPNYEPTPRIHIPGKVHNLLEIIQVDTLIPMNNTHTKDEVNSYLIPLNANRQNEQVFGTNLFIGDGVFKTTLLGEIVQYYTHWSGSLRFSLMYTGPALSSAKLILAYTPPGARGPQDRREAMLGTHVVWDIGLQSTIVMTIPWTSGVQFRYTDPDTYTSAGFLSCWYQTSLILPPETTGQVYLLSFISACPDFKLRLMKDTQTISQTVALTEGLGDELEEVIVEKTKQTVASISSGPKHTQKVPILTANETGATMPVLPSDSIETRTTYMHFNGSETDVECFLGRAACVHVTEIQNKDATGIDNHREAKLFNDWKINLSSLVQLRKKLELFTYVRFDSEYTILATASQPDSANYSSNLVVQAMYVPPGAPNPKEWDDYTWQSASNPSVFFKVGDTSRFSVPYVGLASAYNCFYDGYSHDDAETQYGITVLNHMGSMAFRIVNEHDEHKTLVKIRVYHRAKHVEAWIPRAPRALPYTSIGRTNYPKNTEPVIKKRKGDIKSY
modifications: [35S]-Met labeled
HRV Binding % [1]: 105 % of wild type
HRV Binding % [2]: 117 % of wild type
HRV Binding % [3]: 132 % of wild type
HRV Binding % [4]: 60 % of wild type
HRV Binding % [5]: 129 % of wild type
HRV Binding % [6]: 196 % of wild type
HRV Binding % [7]: 78 % of wild type
HRV Binding % [8]: 61 % of wild type
HRV Binding % [9]: 57 % of wild type
HRV Binding % [10]: 10 % of wild type
HRV Binding % [11]: 89 % of wild type
HRV Binding % [12]: 99 % of wild type
HRV Binding % [13]: 125 % of wild type
HRV Binding % [14]: 140 % of wild type
HRV Binding % [15]: 204 % of wild type
HRV Binding % [16]: 152 % of wild type
HRV Binding % [17]: 99 % of wild type
HRV Binding % [18]: 61 % of wild type
HRV Binding % [19]: 107 % of wild type
HRV Binding % [20]: 157 % of wild type
HRV Binding % [21]: 99 % of wild type
HRV Binding % [22]: 140 % of wild type
HRV Binding % [23]: 9 % of wild type
HRV Binding % [24]: 164 % of wild type
HRV Binding % [25]: 1 % of wild type
HRV Binding % [26]: 89 % of wild type
HRV Binding % [27]: 149 % of wild type
HRV Binding % [28]: 137 % of wild type
HRV Binding % [29]: 13 % of wild type
